The text below walks through data of article PMC9482650, “Quantitative fragmentomics allow affinity mapping of interactomes” (Nature Communications, 2022).

What is called pKd is the negative decadic logarithm of the Kd, by convention in mol/L.

Some targets named below: PDZRN4_2, Q6ZMN7; PDLIM4, P50479; RIMS1, Q86UR5; DLG2_1, Q15700; MAGIX, Q9H6Y5; MAGI1_6, Q96QZ7; MAGI1_3, Q96QZ7; PARD3B_3, Q8TEW8; RGS3, P49796-9.
Common to all, as to assay: holdup assay
Common to all, as to set-up: key: below the threshold = too weak to quantify, mostly under pKd 3.1 to 4

The target of the next experiment is T1, PARD6B, Q9BYG5.
T1 sequence (Q9BYG5 152-260, limits assumed, looked up): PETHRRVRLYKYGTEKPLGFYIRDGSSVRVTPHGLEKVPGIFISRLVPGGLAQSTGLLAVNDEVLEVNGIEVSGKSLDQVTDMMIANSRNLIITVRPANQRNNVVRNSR

The target in another experiment is T2, USH1C_2, Q9Y6N9.
T2 sequence (Q9Y6N9 206-303, limits assumed, looked up): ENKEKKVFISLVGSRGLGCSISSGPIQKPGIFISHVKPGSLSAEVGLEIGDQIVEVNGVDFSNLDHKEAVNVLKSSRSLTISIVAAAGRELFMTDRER

A further experiment concerns the target T3, SHROOM4, Q9ULL8.
T3 sequence (Q9ULL8 5-102, limits assumed, looked up): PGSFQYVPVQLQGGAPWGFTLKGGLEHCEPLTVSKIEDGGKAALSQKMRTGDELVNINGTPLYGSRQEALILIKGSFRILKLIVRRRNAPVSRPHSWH

In another experiment the target is T4, PDZD7_1, Q9H5P4.
T4 sequence (Q9H5P4 81-178, limits assumed, looked up): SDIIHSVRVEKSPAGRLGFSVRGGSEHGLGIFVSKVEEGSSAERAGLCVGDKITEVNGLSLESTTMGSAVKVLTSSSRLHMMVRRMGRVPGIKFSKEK

For another experiment, the target named is T5, GRIP1_1, Q9Y3R0.
T5 sequence (Q9Y3R0 48-146, limits assumed, looked up): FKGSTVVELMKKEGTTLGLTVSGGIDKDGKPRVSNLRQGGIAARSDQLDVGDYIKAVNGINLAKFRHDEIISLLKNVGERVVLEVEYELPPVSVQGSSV

The next experiment concerns the target T6, PDZD11, Q5EBL8.
T6 sequence (Q5EBL8 42-139, limits assumed, looked up): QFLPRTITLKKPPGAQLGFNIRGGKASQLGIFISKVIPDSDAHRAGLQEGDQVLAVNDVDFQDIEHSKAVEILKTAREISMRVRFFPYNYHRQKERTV

Another experiment addresses T7, PDZD2_3, O15018.
T7 sequence (O15018 581-682, limits assumed, looked up): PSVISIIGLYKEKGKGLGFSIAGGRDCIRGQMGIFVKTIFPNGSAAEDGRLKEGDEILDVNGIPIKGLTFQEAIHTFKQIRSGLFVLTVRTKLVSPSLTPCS

The target in the next experiment is T8, USH1C_1, Q9Y6N9.
T8 sequence (Q9Y6N9 82-179, limits assumed, looked up): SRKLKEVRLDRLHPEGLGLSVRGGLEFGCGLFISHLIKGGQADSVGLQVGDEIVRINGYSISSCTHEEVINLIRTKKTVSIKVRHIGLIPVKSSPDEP

Another experiment deals with T9, MPDZ_7, O75970.
T9 sequence (O75970 1146-1253, limits assumed, looked up): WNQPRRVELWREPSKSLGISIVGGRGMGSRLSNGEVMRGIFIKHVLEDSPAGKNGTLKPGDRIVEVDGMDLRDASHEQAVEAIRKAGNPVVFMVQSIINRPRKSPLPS

In another experiment the target is T10, PDZD2_6, O15018.
T10 sequence (O15018 2745-2839, limits assumed, looked up): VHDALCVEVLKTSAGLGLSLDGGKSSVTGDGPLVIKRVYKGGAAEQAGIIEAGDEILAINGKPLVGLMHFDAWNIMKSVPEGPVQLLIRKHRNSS

The next experiment concerns the target T11, PTPN13_4, Q12923.
T11 sequence (Q12923 1783-1878, limits assumed, looked up): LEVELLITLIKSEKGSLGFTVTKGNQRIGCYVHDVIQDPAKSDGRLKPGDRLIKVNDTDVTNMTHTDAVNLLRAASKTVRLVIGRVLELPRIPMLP

For another experiment, the target named is T12, SNTB2, Q13425.
T12 sequence (Q13425 110-208, limits assumed, looked up): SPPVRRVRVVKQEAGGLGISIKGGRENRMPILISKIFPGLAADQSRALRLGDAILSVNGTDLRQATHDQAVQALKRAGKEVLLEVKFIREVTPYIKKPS

In the next experiment the target is T13, SHANK3, Q9BYB0.
T13 sequence (Q9BYB0 641-750, limits assumed, looked up): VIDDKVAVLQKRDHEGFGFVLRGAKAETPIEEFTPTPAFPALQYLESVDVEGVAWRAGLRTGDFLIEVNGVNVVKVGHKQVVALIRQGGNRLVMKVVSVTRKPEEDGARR

For another experiment, the target named is T14, NHERF3_2, Q5T2W1.
T14 sequence (Q5T2W1 129-225, limits assumed, looked up): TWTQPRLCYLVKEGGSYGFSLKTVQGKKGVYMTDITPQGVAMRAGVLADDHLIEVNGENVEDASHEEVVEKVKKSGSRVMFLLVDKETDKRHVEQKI

Where [1] appears, read: plain residues with an end cap or a label only (N-terminal biotin on a linker: none).
The mark [2] stands for this setting: plain residues with an end cap or a label only (N-terminal biotin on a linker: ttds).

Sequence of MAGI1_3, Q96QZ7 (Q96QZ7 638-725): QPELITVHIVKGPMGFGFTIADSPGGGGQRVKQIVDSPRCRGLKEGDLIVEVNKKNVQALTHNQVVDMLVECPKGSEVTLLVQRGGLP
Sequence of RIMS1, Q86UR5 (Q86UR5 584-692): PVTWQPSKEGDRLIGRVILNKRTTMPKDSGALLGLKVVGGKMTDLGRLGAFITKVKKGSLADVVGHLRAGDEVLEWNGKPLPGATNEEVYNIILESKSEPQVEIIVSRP
Sequence of RGS3, P49796-9 (P49796 other isoform, or with tags, fused parts or gaps): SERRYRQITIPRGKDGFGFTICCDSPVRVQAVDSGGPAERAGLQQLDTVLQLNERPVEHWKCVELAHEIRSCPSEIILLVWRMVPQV
Sequence of PDLIM4, P50479 (P50479 1-83): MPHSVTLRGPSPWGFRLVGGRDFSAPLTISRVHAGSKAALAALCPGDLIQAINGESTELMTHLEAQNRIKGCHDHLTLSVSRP
Sequence of PDZRN4_2, Q6ZMN7 (Q6ZMN7 389-498): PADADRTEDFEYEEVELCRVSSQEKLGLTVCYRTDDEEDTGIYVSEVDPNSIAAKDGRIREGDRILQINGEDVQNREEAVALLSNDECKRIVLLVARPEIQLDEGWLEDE
Sequence of PARD3B_3, Q8TEW8 (Q8TEW8 490-594): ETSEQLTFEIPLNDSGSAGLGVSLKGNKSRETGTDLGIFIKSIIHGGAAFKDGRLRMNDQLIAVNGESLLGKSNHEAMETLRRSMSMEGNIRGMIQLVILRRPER
Sequence of MAGIX, Q9H6Y5 (Q9H6Y5 118-211): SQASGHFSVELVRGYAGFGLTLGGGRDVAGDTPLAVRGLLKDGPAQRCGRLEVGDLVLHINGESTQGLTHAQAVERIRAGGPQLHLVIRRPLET
Sequence of MAGI1_6, Q96QZ7 (Q96QZ7 1146-1238): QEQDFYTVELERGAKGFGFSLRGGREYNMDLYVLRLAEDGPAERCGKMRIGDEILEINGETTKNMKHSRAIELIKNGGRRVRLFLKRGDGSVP

DSKPPLPPDEWV [MERS-E, K9N5R3]: the pKd result is “below the threshold” in the experiment with PARD6B, Q9BYG5 (setting [1]); “below the threshold” in the experiment with USH1C_2, Q9Y6N9 (setting [1]); 3.75 with PDZRN4_2, Q6ZMN7 (setting [1]); “below the threshold” with SHROOM4, Q9ULL8 (setting [1]); “below the threshold” with PDZD7_1, Q9H5P4 (setting [1]); 3.83 in the experiment with PDLIM4, P50479 (setting [1]). For the same molecule, the pKd result with GRIP1_1, Q9Y3R0 (setting [1]) is “below the threshold”; with RIMS1, Q86UR5 (setting [1]), 4.38; in the experiment with DLG2_1, Q15700 (setting [1]), “below the threshold”; with PDZD11, Q5EBL8 (setting [1]) it was “below the threshold”; with PDZD2_3, O15018 (setting [1]), 3.89; with MAGIX, Q9H6Y5 (setting [1]), “below the threshold”. Also, the pKd result in the experiment with USH1C_1, Q9Y6N9 (setting [1]) is “below the threshold”; in the experiment with MPDZ_7, O75970 (setting [1]) it was 3.83; with MAGI1_6, Q96QZ7 (setting [1]), 4.66; with PDZD2_6, O15018 (setting [1]), “below the threshold”; in the experiment with MAGI1_3, Q96QZ7 (setting [1]) it was “below the threshold”; with PTPN13_4, Q12923 (setting [1]) it was 4.11. Further, the pKd entry is “below the threshold” with PARD3B_3, Q8TEW8 (setting [1]); 4.67 in the experiment with RGS3, P49796-9 (setting [1]); “below the threshold” with SNTB2, Q13425 (setting [1]); “below the threshold” in the experiment with SHANK3, Q9BYB0 (setting [1]); “below the threshold” in the experiment with NHERF3_2, Q5T2W1 (setting [1]).

For the molecule HRTCYLVTQL [ASIC3, Q9UHC3], the pKd result in the experiment with PARD6B, Q9BYG5 (setting [2]) is reported as “below the threshold”; with USH1C_2, Q9Y6N9 (setting [2]), “below the threshold”; in the experiment with PDZRN4_2, Q6ZMN7 (setting [2]) it was “below the threshold”; with SHROOM4, Q9ULL8 (setting [2]), “below the threshold”; with PDZD7_1, Q9H5P4 (setting [2]), “below the threshold”; with PDLIM4, P50479 (setting [2]) it was “below the threshold”. Moreover, the pKd is 4.31 in the experiment with GRIP1_1, Q9Y3R0 (setting [2]); “below the threshold” in the experiment with RIMS1, Q86UR5 (setting [2]); “below the threshold” with DLG2_1, Q15700 (setting [2]); “below the threshold” with PDZD11, Q5EBL8 (setting [2]); “below the threshold” with PDZD2_3, O15018 (setting [2]); “below the threshold” with MAGIX, Q9H6Y5 (setting [2]). Besides, the negative-log Kd (pKd) entry in the experiment with USH1C_1, Q9Y6N9 (setting [2]) is “below the threshold”; in the experiment with MPDZ_7, O75970 (setting [2]) it was 4.73; in the experiment with MAGI1_6, Q96QZ7 (setting [2]) it was “below the threshold”; with PDZD2_6, O15018 (setting [2]), “below the threshold”; with MAGI1_3, Q96QZ7 (setting [2]) it was “below the threshold”; with PTPN13_4, Q12923 (setting [2]) it was “below the threshold”. The pKd result in the experiment with PARD3B_3, Q8TEW8 (setting [2]) was “below the threshold”; in the experiment with RGS3, P49796-9 (setting [2]), 4.32; with SNTB2, Q13425 (setting [2]), “below the threshold”; in the experiment with SHANK3, Q9BYB0 (setting [2]) it was 5.52; with NHERF3_2, Q5T2W1 (setting [2]), 4.33.

For DPLTPSRSQL [DGKK, Q5KSL6], the pKd entry with PARD6B, Q9BYG5 (setting [2]) is “below the threshold”; with USH1C_2, Q9Y6N9 (setting [2]), “below the threshold”; with PDZRN4_2, Q6ZMN7 (setting [2]) it was 4.05; with SHROOM4, Q9ULL8 (setting [2]), “below the threshold”; with PDZD7_1, Q9H5P4 (setting [2]), “below the threshold”; in the experiment with PDLIM4, P50479 (setting [2]), “below the threshold”. Also, the pKd entry is recorded as “below the threshold” with GRIP1_1, Q9Y3R0 (setting [2]); “below the threshold” in the experiment with RIMS1, Q86UR5 (setting [2]); “below the threshold” in the experiment with DLG2_1, Q15700 (setting [2]); “below the threshold” with PDZD11, Q5EBL8 (setting [2]); “below the threshold” with PDZD2_3, O15018 (setting [2]); “below the threshold” with MAGIX, Q9H6Y5 (setting [2]). The pKd entry in the experiment with USH1C_1, Q9Y6N9 (setting [2]) is “below the threshold”; with MPDZ_7, O75970 (setting [2]), “below the threshold”; with MAGI1_6, Q96QZ7 (setting [2]) it was “below the threshold”; in the experiment with PDZD2_6, O15018 (setting [2]), “below the threshold”; with MAGI1_3, Q96QZ7 (setting [2]) it was “below the threshold”; with PTPN13_4, Q12923 (setting [2]), “below the threshold”. Further, the negative logarithm of the Kd (pKd) result in the experiment with PARD3B_3, Q8TEW8 (setting [2]) was “below the threshold”; with RGS3, P49796-9 (setting [2]), “below the threshold”; with SNTB2, Q13425 (setting [2]), “below the threshold”; in the experiment with SHANK3, Q9BYB0 (setting [2]) it was “below the threshold”; with NHERF3_2, Q5T2W1 (setting [2]) it was “below the threshold”.

Regarding IQREDQETAV [DGKZ, Q13574], the pKd result in the experiment with PARD6B, Q9BYG5 (setting [2]) was “below the threshold”; with USH1C_2, Q9Y6N9 (setting [2]), “below the threshold”; with PDZRN4_2, Q6ZMN7 (setting [2]), “below the threshold”; with SHROOM4, Q9ULL8 (setting [2]), 4.76; with PDZD7_1, Q9H5P4 (setting [2]), “below the threshold”; with PDLIM4, P50479 (setting [2]) it was “below the threshold”. The pKd result in the experiment with GRIP1_1, Q9Y3R0 (setting [2]) is “below the threshold”; with RIMS1, Q86UR5 (setting [2]), “below the threshold”; with DLG2_1, Q15700 (setting [2]), 4.71; with PDZD11, Q5EBL8 (setting [2]), “below the threshold”; with PDZD2_3, O15018 (setting [2]), “below the threshold”; in the experiment with MAGIX, Q9H6Y5 (setting [2]), “below the threshold”. Also, the pKd entry was “below the threshold” in the experiment with USH1C_1, Q9Y6N9 (setting [2]); “below the threshold” with MPDZ_7, O75970 (setting [2]); 4.35 in the experiment with MAGI1_6, Q96QZ7 (setting [2]); “below the threshold” with PDZD2_6, O15018 (setting [2]); 4.57 in the experiment with MAGI1_3, Q96QZ7 (setting [2]); “below the threshold” with PTPN13_4, Q12923 (setting [2]). For the same molecule, the pKd entry is “below the threshold” with PARD3B_3, Q8TEW8 (setting [2]); “below the threshold” with RGS3, P49796-9 (setting [2]); 5.16 with SNTB2, Q13425 (setting [2]); “below the threshold” with SHANK3, Q9BYB0 (setting [2]); “below the threshold” in the experiment with NHERF3_2, Q5T2W1 (setting [2]).
